Assay results taken from article PMC4682967.
pKd: −log10 of the molar value. Blank lines part the entries; values can stand above or below the substance they belong to.

How the values were obtained:
[1] = system: scFv-Fc_(CH3A) of A107 and A108 (K370E/K409W); assay: non-reducing SDS-PAGE of coexpressed chains; scFv-Fc_(CH3A) and Fc_(CH3B) cotransfected at equivalent molar ratio in HEK293F, Protein A purified from supernatant after 6 days; heterodimer and homodimers told apart by mass, band intensities by ImageJ; details: other: non-reducing SDS-PAGE of coexpressed chains
[2] = system: scFv-Fc_(CH3A) of A107_(w/o W-VT) (K370E); assay: as above; details: other: non-reducing SDS-PAGE of coexpressed chains
[3] = system: scFv-Fc_(CH3A) of A241 (E357N/S364W/K370E); assay: as above; details: other: non-reducing SDS-PAGE of coexpressed chains
[4] = system: scFv-Fc_(CH3A) of A216 (E357G/S364W/K370E); assay: as above; details: other: non-reducing SDS-PAGE of coexpressed chains
[5] = system: scFv-Fc_(CH3A) of A109 (K370M/K409W); assay: as above; details: other: non-reducing SDS-PAGE of coexpressed chains
[6] = system: scFv-Fc_(CH3A) of A109_(w/o W-VT) (K370M); assay: as above; details: other: non-reducing SDS-PAGE of coexpressed chains
[7] = system: scFv-Fc_(CH3A) of A146 (K370D/K409W); assay: as above; details: other: non-reducing SDS-PAGE of coexpressed chains
[8] = system: scFv-Fc_(CH3A) of A146_(w/o W-VT) (K370D); assay: as above; details: other: non-reducing SDS-PAGE of coexpressed chains
[9] = system: scFv-Fc_(CH3A) of A205 (E357D/S364W/K370E); assay: as above; details: other: non-reducing SDS-PAGE of coexpressed chains
[10] = system: scFv-Fc_(CH3A) of A210 (E357A/S364Y/K370E); assay: as above; details: other: non-reducing SDS-PAGE of coexpressed chains
[11] = system: scFv-Fc_(CH3A) of B121 (D399E/K409W); assay: as above; details: other: non-reducing SDS-PAGE of coexpressed chains
[12] = system: scFv-Fc_(CH3A) of B135 and B168 (D399L/K409W); assay: as above; details: other: non-reducing SDS-PAGE of coexpressed chains
[13] = system: scFv-Fc_(CH3A) of B168_(w/o W-VT) (D399L); assay: as above; details: other: non-reducing SDS-PAGE of coexpressed chains
[14] = system: scFv-Fc_(CH3A) of B240 (K392S/K409R/D399L); assay: as above; details: other: non-reducing SDS-PAGE of coexpressed chains
[15] = system: scFv-Fc_(CH3A) of B212 (K392I/D399L); assay: as above; details: other: non-reducing SDS-PAGE of coexpressed chains
[16] = system: scFv-Fc_(CH3A) of B215 (K392R/K409R/D399L); assay: as above; details: other: non-reducing SDS-PAGE of coexpressed chains
[17] = system: scFv-Fc_(CH3A) of B235 (K392C/D399L); assay: as above; details: other: non-reducing SDS-PAGE of coexpressed chains
[18] = system: scFv-Fc_(CH3A) of B239 (K392L/D399L); assay: as above; details: other: non-reducing SDS-PAGE of coexpressed chains
[19] = system: scFv-Fc_(CH3A) of B256 (K392N/D399L); assay: as above; details: other: non-reducing SDS-PAGE of coexpressed chains
[20] = system: scFv-Fc_(CH3A) of W-VT (K409W); assay: as above; details: other: non-reducing SDS-PAGE of coexpressed chains
[21] = biological target: human neonatal Fc receptor (FcRn) (human) (UniProt P55899); assay: SPR; human FcRn coated on the chip at approximately 1,000 response units; serially diluted Fc proteins applied; pH 6.0; mean ± SD of two independent experiments, at least 5 data sets each

Substance: Fc_(CH3B) of A107 (E357N/D399V/F405T)
heterodimer yield (%) [1]: 93.4%

Substance: Fc_(CH3B) of A107_(w/o W-VT), A216 and A241 (E357N)
heterodimer yield (%) [2]: 78.2%
heterodimer yield (%) [3]: 81%
heterodimer yield (%) [4]: 80.3%

Substance: Fc_(CH3B) of A108 (E357I/S364T/D399V/F405T)
heterodimer yield (%) [1]: 70.5%

Substance: Fc_(CH3B) of A109 (E357M/S364W/D399V/F405T)
heterodimer yield (%) [5]: 90.5%

Substance: Fc_(CH3B) of A109_(w/o W-VT) (E357M/S364W)
heterodimer yield (%) [6]: 61.6%

Substance: Fc_(CH3B) of A146 (E357M/D399V/F405T)
heterodimer yield (%) [7]: 74.5%

Substance: Fc_(CH3B) of A146_(w/o W-VT) (E357M)
heterodimer yield (%) [8]: 71%

Substance: Fc_(CH3B) of A205 (E357N/K370R)
heterodimer yield (%) [9]: 88.8%

Substance: Fc_(CH3B) of A210 (E357N/K370H)
heterodimer yield (%) [10]: 80.8%

Substance: Fc_(CH3B) of B121 (K392E/D399V/F405T)
heterodimer yield (%) [11]: 73.3%

Substance: Fc_(CH3B) of B135 (K392S/K409L/D399V/F405T)
heterodimer yield (%) [12]: 67.8%

Substance: Fc_(CH3B) of B168 (K392G/K409M/D399V/F405T)
heterodimer yield (%) [12]: 77.7%

Substance: Fc_(CH3B) of B168_(w/o W-VT) (K392G/K409M)
heterodimer yield (%) [13]: 60.9%

Substance: Fc_(CH3B) of B212 and B240 (D399G/K392G/K409M)
heterodimer yield (%) [14]: 83.3%
heterodimer yield (%) [15]: 65.3%

Substance: Fc_(CH3B) of B215 (D399W/K392G/K409M)
heterodimer yield (%) [16]: 78.1%

Substance: Fc_(CH3B) of B235 (D399C/K392G/K409M)
heterodimer yield (%) [17]: 89.4%

Substance: Fc_(CH3B) of B239 (D399S/K392G/K409M)
heterodimer yield (%) [18]: 76.3%

Substance: Fc_(CH3B) of B256 (D399V/K392G/K409M)
heterodimer yield (%) [19]: 79.4%

Substance: Fc_(CH3B) of W-VT (D399V/F405T)
heterodimer yield (%) [20]: 60.8%

pKd [21]: 7.45
koff [21]: 5.83e-05 s⁻¹
kon [21]: 1640 M⁻¹ s⁻¹
Substance: wild-type human IgG1 Fc homodimer (Fc-WT) (domain or fragment)
